The values below come from FireProtDB (doi:10.1038/12277).

B1: Ribonuclease HI, P0A7Y4 (parent)
chain: MLKQVEIFTDGSCLGNPGPGGYGAILRYRGREKTFSAGYTRTTNNRMELMAAIVALEALKEHCEVILSTDSQYVRQGITQWIHNWKKRGWKTADKKPVKNVDLWQRLDAALGQHQIKWEWVKGHAGHPENERCDELARAAAMNPTLEDTGYQVEV

The variants in the data set derive from B1. The note with it: Escherichia coli (strain K12), pH 5.5, CD, Potassium phosphate 2 mM, KF 5 mM, reversible: yes, structure 2RN2, whole UniProt chain shown; for ddG of mutation (higher = less stable) / denaturant m value / unfolding free energy: 25 °C, Urea; for Tm / change of melting temperature, mutant - wild type (higher = more stable): Thermal.

The term Tm denotes the temperature at the midpoint of the melting transition. In the case of D10A, the “ddG of mutation (higher = less stable)” value is -3.3 kcal/mol, the denaturant m value is 2.1 kcal/mol/M, the unfolding free energy came to 13 kcal/mol and the Tm stood at 62.6 °C. Further, the “change of melting temperature, mutant - wild type (higher = more stable)” value (“change of melting temperature, mutant” for short) was 14.8 °C.
In the case of I53A, the Tm is 35.7 °C and the “change of melting temperature, mutant” value was -12.1 °C.
Consider R27A, for which the “ddG of mutation (higher = less stable)” value was determined as 2.2 kcal/mol, the denaturant m value was 2 kcal/mol/M, the unfolding free energy was 7.5 kcal/mol and the Tm came to 42.2 °C. For the same variant, the “change of melting temperature, mutant” value was -5.6 °C.
Taken in the same sequence, the figures for Q105G were 2.2 kcal/mol, 2.1 kcal/mol/M, 7.5 kcal/mol, 38.2 °C and -9.6 °C.
